B1: Hairpin Ribozyme (parent)
chain: GUCCUCUUUCACGUGCGCGUGAAAGAGAGAAGUGAACCAGAGAAACACACGUUGUGGUAUAUUACCUGGUA

Variants of: B1
Test: self-cleavage, relative activity (ratio to wild type); higher = more cleavage; co-transcriptional

Variant	self-cleavage
G13U A64U	0.147
U14G C48G	0.178
G15C A41G	1.04
G15C A41C	1.28
G15C A41U	1.28
G13C G69C	0.199
G13C G69A	0.214
U14A G51U	0.925
U14G G54U	0.491
U14G G54C	0.315
G15A A24U	0.688
U14G A47G	0.157
G15A U53G	0.687
G15A U53A	0.862
U14A G17C	0.472
U14C G40U	0.188
U14C G40C	0.156
U14C G40A	0.326
G13U U33G	0.0972
G13U U33C	0.102
U14C G51C	0.586
G15A G34U	1.26
G15A G34A	1.11
U14C U70C	1.15

Variant	self-cleavage
G15A G57U	0.3
G13C G42A	0.208
G13C G32C	0.123
G13U G19C	0.686
U14G G19C	0.842
U14G G19A	0.651
U14G A24C	0.887
G13U A49C	0.117
U14A A28G	1.2
U14G A44U	0.138
U14G U70A	0.823
U14G U55C	0.286
U14G U55A	0.0772
G13C G51C	0.681
U14G A26G	0.781
G15A G68C	0.219
G15A G68A	0.362
U14G G32C	0.0712
U14A G25A	0.56
U14A G25U	0.521
U14A G29A	0.227
U14A U55G	0.179
G13C A64C	0.149
G13U G15A	0.491

Variant	self-cleavage
G13U G15C	0.608
G13U A45G	0.0663
G13C G40U	0.158
G13C A59C	0.11
G13C C66U	0.431
G13C C66A	0.0627
G13C C66G	0.129
U14A G54U	0.471
U14A G54A	0.581
U14C A35C	0.687
U14A A23C	0.789
U14A A23G	0.814
G13U G69U	0.246
G13U G29U	0.147
U14C A61U	0.293
U14G U53C	0.925
G13C G34A	0.915
U14C C18G	0.957
G13C G21A	0.61
U14A C18U	0.924
G15A U70C	0.759
U14G G69A	0.303
U14C A59C	0.0922
U14C G19A	0.612

Variant	self-cleavage
U14G G57C	0.0955
U14C A23U	1.09
G13C A71G	0.823
G15C A59G	0.104
U14A G68C	0.25
U14A A44U	0.118
G15A U60A	0.767
G15C A43G	0.11
U14C G29U	0.198
U14A A24C	0.703
G15A A36G	1.08
G15A A36C	0.815
G13C G54C	0.161
G13C G54A	0.368
U14G A36C	0.729
G15A G32C	0.174
G13C A43G	0.144
G13C A43U	0.0989
U14C C38U	0.493
U14A A36G	0.864
U14A A64G	0.589
U14A A64C	0.254
U14A A64U	0.171
U14G C38G	0.119

Variant	self-cleavage
U14G U58G	0.464
G15A C66A	0.129
G13C C18A	0.932
G15A G42C	0.294
G15A G42U	0.301
U14A C66A	0.0937
U14C G69C	0.3
U14A A71G	1.08
G15A C46A	0.132
G15A C46G	0.0897
G13U A28U	0.546
G13U A28G	0.725
G13C U53A	0.747
G13U G32C	0.232
G13U A35U	0.83
U14A U62A	0.0586
U14C A44C	0.241
U14C A44U	0.0783
G13U U55A	0.263
G13U U55C	0.254
G13C C65G	0.256
G13C C65A	0.726
G15A C65A	0.863
G13C U14A	0.688

Variant	self-cleavage
G13C U14G	0.688
G13U C18A	0.915
G13U C18U	0.967
G15C A22C	0.846
G15C A22G	0.746
G15A A39U	0.351
G15A A39C	0.508
G15A G54U	0.737
G13C C48G	0.102
U14C G54C	0.397
U14G C46U	0.21
U14G C46A	0.113
G13U U53C	0.477
U14G G34A	1.05
G13C U20G	0.531
G13C U20C	0.785
G13C U20A	0.492
U14A U67C	0.247
U14A U67G	0.277
U14A U67A	0.188
U14G G56A	0.103
U14G A31U	0.119
U14C U67G	0.344
U14C U67A	0.151

Variant	self-cleavage
U14C C50U	0.265
U14G C18A	0.941
U14G C18G	0.694
U14C G25U	0.762
U14C A41G	0.678
U14C A41C	1.18
G15A A71C	1.29
G15A A71G	0.943
U14C A28G	0.65
U14C G21C	0.883
U14A U63C	0.212
G13U A41C	0.91
U14A A43C	0.15
U14G G42A	0.163
G13C A61U	0.161
G13C G15U	0.695
U14A A35C	0.998
U14A A35G	0.956
U14G A45U	0.147
U14G G29C	0.169
U14G G51U	1.02
G13C U60A	0.579
G13U A44U	0.147
